Measured values published in patent publication US20200317768A1 (published 2020).

T1: cynomolgus monkey FcγRIIa2 extracellular domain with C-terminal His-tag (cynomolgus monkey)
T1 construct: also called cyno FcgRIIa2; cynoFcγRIIa2
T1 chain: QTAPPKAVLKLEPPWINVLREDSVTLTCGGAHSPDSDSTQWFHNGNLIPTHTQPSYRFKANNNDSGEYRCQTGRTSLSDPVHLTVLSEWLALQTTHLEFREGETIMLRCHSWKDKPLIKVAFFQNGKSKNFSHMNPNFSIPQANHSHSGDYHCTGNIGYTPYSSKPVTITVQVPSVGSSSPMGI

T2: cynomolgus monkey FcγRIIb extracellular domain with C-terminal His-tag (cynomolgus monkey)
T2 construct: also called cyno FcgRIIb; cynoFcγRIIb
T2 chain: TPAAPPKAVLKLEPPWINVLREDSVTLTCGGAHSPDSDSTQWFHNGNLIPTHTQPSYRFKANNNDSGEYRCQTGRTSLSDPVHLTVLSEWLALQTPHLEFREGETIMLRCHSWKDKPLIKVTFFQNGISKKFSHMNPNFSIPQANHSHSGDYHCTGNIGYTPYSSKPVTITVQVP

T3: human FcγRIIb extracellular domain with C-terminal His-tag (human, UniProt P31994 43-217)
T3 construct: also called human FcgRIIb
T3 sequence: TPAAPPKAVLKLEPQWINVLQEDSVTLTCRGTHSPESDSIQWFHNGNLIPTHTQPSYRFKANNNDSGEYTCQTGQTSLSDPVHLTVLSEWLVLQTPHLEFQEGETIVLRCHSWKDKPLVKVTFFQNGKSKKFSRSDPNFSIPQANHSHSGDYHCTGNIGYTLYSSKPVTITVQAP

T4: human FcγRIIaR extracellular domain with C-terminal His-tag (human, UniProt P12318 34-217)
T4 construct: also called human FcgRIIaR; FcγRIIa (type R)
T4 chain: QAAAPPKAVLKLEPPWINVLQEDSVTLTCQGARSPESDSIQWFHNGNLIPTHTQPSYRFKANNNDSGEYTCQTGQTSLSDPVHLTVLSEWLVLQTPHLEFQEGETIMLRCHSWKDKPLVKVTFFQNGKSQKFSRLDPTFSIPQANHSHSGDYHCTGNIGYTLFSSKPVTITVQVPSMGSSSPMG

T5: cynomolgus monkey FcγRIIa3 extracellular domain with C-terminal His-tag (cynomolgus monkey)
T5 construct: also called cyno FcgRIIa3; cynoFcγRIIa3
T5 chain: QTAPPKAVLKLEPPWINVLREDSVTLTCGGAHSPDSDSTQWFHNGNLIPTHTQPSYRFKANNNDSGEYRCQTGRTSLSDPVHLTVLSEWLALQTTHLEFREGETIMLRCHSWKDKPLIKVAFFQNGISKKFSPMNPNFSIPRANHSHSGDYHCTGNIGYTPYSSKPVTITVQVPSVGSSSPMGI

T6: cynomolgus monkey FcγRIIIaS extracellular domain with C-terminal His-tag (cynomolgus monkey, UniProt Q8SPW2 21-206 at identity 1.00))
T6 construct: also called cyno FcgRIIIaS; cynoFcγRIIIaS
T6 chain: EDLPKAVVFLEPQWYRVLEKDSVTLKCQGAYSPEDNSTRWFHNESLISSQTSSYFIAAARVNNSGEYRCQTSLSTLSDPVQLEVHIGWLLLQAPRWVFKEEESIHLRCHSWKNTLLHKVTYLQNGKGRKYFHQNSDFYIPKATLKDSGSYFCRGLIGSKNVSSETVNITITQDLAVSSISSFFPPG

T7: cynomolgus monkey FcγRIIa1 extracellular domain with C-terminal His-tag (cynomolgus monkey)
T7 construct: also called cyno FcgRIIa1; cynoFcγRIIa1
T7 chain: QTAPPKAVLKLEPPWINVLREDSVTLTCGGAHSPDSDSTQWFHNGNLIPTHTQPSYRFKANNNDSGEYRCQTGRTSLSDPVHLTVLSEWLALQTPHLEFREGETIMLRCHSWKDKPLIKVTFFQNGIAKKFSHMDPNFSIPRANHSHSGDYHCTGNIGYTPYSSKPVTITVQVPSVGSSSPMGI


Experiments:
Experiment in all cases: SPR (BIACORE); KD of SG1 / KD of variant;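 note: relative to parent M103205H795-SG1 carrying the SG1 human heavy chain constant region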
[1] = target: T8, human FcγRIIIaV extracellular domain with C-terminal His-tag (human, UniProt P08637 17-208)
T8 construct: also called human FcgRIIIaV

[2] = target: T1, cynomolgus monkey FcγRIIa2 …
[3] = target: T2, cynomolgus monkey FcγRIIb extracellular …
[4] = target: T3, human FcγRIIb extracellular domain with …
[5] = target: T4, human FcγRIIaR extracellular domain …
[6] = target: T5, cynomolgus monkey FcγRIIa3 …
[7] = target: T6, cynomolgus monkey FcγRIIIaS …
[8] = target: T7, cynomolgus monkey FcγRIIa1 …

T8 sequence (P08637 17-208 F176V): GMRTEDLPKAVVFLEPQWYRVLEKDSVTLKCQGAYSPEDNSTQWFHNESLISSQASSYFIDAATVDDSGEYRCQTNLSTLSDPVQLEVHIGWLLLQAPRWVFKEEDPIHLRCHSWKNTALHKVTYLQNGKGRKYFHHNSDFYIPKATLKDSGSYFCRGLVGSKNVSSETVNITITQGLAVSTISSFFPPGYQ

Row | KD fold (SG1 = 1) [1] | KD fold (SG1 = 1) [2] | KD fold (SG1 = 1) [3] | KD fold (SG1 = 1) [4] | KD fold (SG1 = 1) [5] | KD fold (SG1 = 1) [6] | KD fold (SG1 = 1) [7] | KD fold (SG1 = 1) [8] | Binder
1 | 0.03 fold | 0.6 fold | 1.4 fold | 1.2 fold | 1.1 fold | 0.3 fold | 0.14 fold | 0.6 fold | M103205H795-MY342/M103202L889-SK1 (antibody, human IgG1, kappa, Substitutions introduced into M103205H795-SG1, expressed with M103202L889-SK1 as light chain; EU numbering) heavy: QVTLKESGPVLVKPTETLTLTCTVSGIDLSHDDISWVRQAPGKGLEWVGIISYAGSTYYASWAKGRLTISKDTSKNQVVLTMTNMDPVDTATYYCARGVPAYSHGGDLWGQGTLVTVSSASTKGPSVFPLAPSSKSTSGGTAALGCLVKDYFPEPVTVSWNSGALTSGVHTFPAVLQSSGLYSLSSVVTVPSSSLGTQTYICNVNHKPSNTKVDKKVEPKSCDKTHTCPPCPAPELLLGPSVFLFPPKPKDTLMISRTPEVTCVVVDVSDEDPEVKFNWYVDGVEVHNAKTKPREELYNSTYRVVSVLTVLHQDWLNGKEYKCKVSNKALPKPIEKTISKAKGQPREPQVYTLPPSREEMTKNQVSLTCLVKGFYPSDIAVEWESNGQPENNYKTTPMVLDSDGSFFLYSKLTVDKSRWQQGNVFSCSVMHEALHNHYTQKSLSLSP light: DIVMTQSPATLSLSPGERATLSCTSSQSVYHANWLSWFQQKPGQPPKLLIYWASTLAYGVPSRFSGSGSGTDFTLTISSLQPEDAATYYCAGGYGGGRYAFGQGTKVEIKRTVAAPSVFIFPPSDEQLKSGTASVVCLLNNFYPREAKVQWKVDNALQSGNSQESVTEQDSKDSTYSLSSTLTLSKADYEKHKVYACEVTHQGLSSPVTKSFNRGEC
2 | 0.17 fold | 2.7 fold | 2.2 fold | 2.5 fold | 3.5 fold | 12.1 fold | 0.14 fold | 1.4 fold | M103205H795-MY387/M103202L889-SK1 (antibody, human IgG1, kappa, Substitutions introduced into M103205H795-SG1, expressed with M103202L889-SK1 as light chain; EU numbering) heavy: QVTLKESGPVLVKPTETLTLTCTVSGIDLSHDDISWVRQAPGKGLEWVGIISYAGSTYYASWAKGRLTISKDTSKNQVVLTMTNMDPVDTATYYCARGVPAYSHGGDLWGQGTLVTVSSASTKGPSVFPLAPSSKSTSGGTAALGCLVKDYFPEPVTVSWNSGALTSGVHTFPAVLQSSGLYSLSSVVTVPSSSLGTQTYICNVNHKPSNTKVDKKVEPKSCDKTHTCPPCPAPELLTGPVVFLFPPKPKDTLMISRTPEVTCVVVDVSDEDPEVKFNWYVDGVEVHNAKTKPREEQYNSTYRVVSVLTVLHQDWLNGKEYKCKVSNKALPKPIEKTISKAKGQPREPQVYTLPPSREEMTKNQVSLTCLVKGFYPSDIAVEWESNGQPENNYKTTPPVLDSDGSFFLYSKLTVDKSRWQQGNVFSCSVMHEALHNHYTQKSLSLSP light: DIVMTQSPATLSLSPGERATLSCTSSQSVYHANWLSWFQQKPGQPPKLLIYWASTLAYGVPSRFSGSGSGTDFTLTISSLQPEDAATYYCAGGYGGGRYAFGQGTKVEIKRTVAAPSVFIFPPSDEQLKSGTASVVCLLNNFYPREAKVQWKVDNALQSGNSQESVTEQDSKDSTYSLSSTLTLSKADYEKHKVYACEVTHQGLSSPVTKSFNRGEC
3 | 0.19 fold | 3 fold | 2.4 fold | 3.1 fold | 4.8 fold | 13.1 fold | 0.23 fold | 1.5 fold | M103205H795-MY388/M103202L889-SK1 (antibody, human IgG1, kappa, Substitutions introduced into M103205H795-SG1, expressed with M103202L889-SK1 as light chain; EU numbering) heavy: QVTLKESGPVLVKPTETLTLTCTVSGIDLSHDDISWVRQAPGKGLEWVGIISYAGSTYYASWAKGRLTISKDTSKNQVVLTMTNMDPVDTATYYCARGVPAYSHGGDLWGQGTLVTVSSASTKGPSVFPLAPSSKSTSGGTAALGCLVKDYFPEPVTVSWNSGALTSGVHTFPAVLQSSGLYSLSSVVTVPSSSLGTQTYICNVNHKPSNTKVDKKVEPKSCDKTHTCPPCPAPELLTGPIVFLFPPKPKDTLMISRTPEVTCVVVDVSDEDPEVKFNWYVDGVEVHNAKTKPREEQYNSTYRVVSVLTVLHQDWLNGKEYKCKVSNKALPKPIEKTISKAKGQPREPQVYTLPPSREEMTKNQVSLTCLVKGFYPSDIAVEWESNGQPENNYKTTPPVLDSDGSFFLYSKLTVDKSRWQQGNVFSCSVMHEALHNHYTQKSLSLSP light: DIVMTQSPATLSLSPGERATLSCTSSQSVYHANWLSWFQQKPGQPPKLLIYWASTLAYGVPSRFSGSGSGTDFTLTISSLQPEDAATYYCAGGYGGGRYAFGQGTKVEIKRTVAAPSVFIFPPSDEQLKSGTASVVCLLNNFYPREAKVQWKVDNALQSGNSQESVTEQDSKDSTYSLSSTLTLSKADYEKHKVYACEVTHQGLSSPVTKSFNRGEC

The next lines start with the binder.

Row | Binder | KD fold (SG1 = 1) [1] | KD fold (SG1 = 1) [2] | KD fold (SG1 = 1) [3] | KD fold (SG1 = 1) [4] | KD fold (SG1 = 1) [5] | KD fold (SG1 = 1) [6] | KD fold (SG1 = 1) [7] | KD fold (SG1 = 1) [8]
4 | M103205H795-MY386/M103202L889-SK1 (antibody, human IgG1, kappa, Substitutions introduced into M103205H795-SG1, expressed with M103202L889-SK1 as light chain; EU numbering) heavy: QVTLKESGPVLVKPTETLTLTCTVSGIDLSHDDISWVRQAPGKGLEWVGIISYAGSTYYASWAKGRLTISKDTSKNQVVLTMTNMDPVDTATYYCARGVPAYSHGGDLWGQGTLVTVSSASTKGPSVFPLAPSSKSTSGGTAALGCLVKDYFPEPVTVSWNSGALTSGVHTFPAVLQSSGLYSLSSVVTVPSSSLGTQTYICNVNHKPSNTKVDKKVEPKSCDKTHTCPPCPAPELLLGPSVFLFPPKPKDTLMISRTPEVTCVVVDVSDEDPEVKFNWYVDGVEVHNAKTKPREELYNSTYRVVSVLTVLHQDWLNGKEYKCKVSNTALPKPIEKTISKAKGQPREPQVYTLPPSREEMTKNQVSLTCLVKGFYPSDIAVEWESNGQPENNYKTTPPVLDSDGSFFLYSKLTVDKSRWQQGNVFSCSVMHEALHNHYTQKSLSLSP light: DIVMTQSPATLSLSPGERATLSCTSSQSVYHANWLSWFQQKPGQPPKLLIYWASTLAYGVPSRFSGSGSGTDFTLTISSLQPEDAATYYCAGGYGGGRYAFGQGTKVEIKRTVAAPSVFIFPPSDEQLKSGTASVVCLLNNFYPREAKVQWKVDNALQSGNSQESVTEQDSKDSTYSLSSTLTLSKADYEKHKVYACEVTHQGLSSPVTKSFNRGEC | 0.03 fold | 0.9 fold | 1.1 fold | 1 fold | 0.6 fold | 1.1 fold | 0.14 fold | 0.6 fold
5 | M103205H795-MY380/M103202L889-SK1 (antibody, human IgG1, kappa, Substitutions introduced into M103205H795-SG1, expressed with M103202L889-SK1 as light chain; EU numbering) heavy: QVTLKESGPVLVKPTETLTLTCTVSGIDLSHDDISWVRQAPGKGLEWVGIISYAGSTYYASWAKGRLTISKDTSKNQVVLTMTNMDPVDTATYYCARGVPAYSHGGDLWGQGTLVTVSSASTKGPSVFPLAPSSKSTSGGTAALGCLVKDYFPEPVTVSWNSGALTSGVHTFPAVLQSSGLYSLSSVVTVPSSSLGTQTYICNVNHKPSNTKVDKKVEPKSCDKTHTCPPCPAPELLNGPSVFLFPPKPKDTLMISRTPEVTCVVVDVSEEDPEVKFNWYVDGVEVHNAKTKPREEQYNSTYRVVSVLTVLHQDWLNGKEYKCKVSNKALPKPIEKTISKAKGQPREPQVYTLPPSREEMTKNQVSLTCLVKGFYPSDIAVEWESNGQPENNYKTTPKVLDSDGSFFLYSKLTVDKSRWQQGNVFSCSVMHEALHNHYTQKSLSLSP light: DIVMTQSPATLSLSPGERATLSCTSSQSVYHANWLSWFQQKPGQPPKLLIYWASTLAYGVPSRFSGSGSGTDFTLTISSLQPEDAATYYCAGGYGGGRYAFGQGTKVEIKRTVAAPSVFIFPPSDEQLKSGTASVVCLLNNFYPREAKVQWKVDNALQSGNSQESVTEQDSKDSTYSLSSTLTLSKADYEKHKVYACEVTHQGLSSPVTKSFNRGEC | 0.08 fold | 5.1 fold | 6.2 fold | 9.6 fold | 1.3 fold | 3.2 fold | 0.13 fold | 3.4 fold
